Measured values taken from patent US20230220458.

Tested on: HhaI restriction endonuclease
Test: cleavage_in_vitro
Details: 37 C 2 h

| Sequence | activity (cycles (deltaCq test vs control locus)) (100% dsDNA, no visible amplification of test locus after digestion) | activity (cycles (deltaCq test vs control locus)) (100% ssDNA, digestion impaired) |
| --- | --- | --- |
| CGGATAGCGCGGCGGGCGACAGCCCCCCGGATAACCCCGCCGAGGGAGGGGCGCTTGTAAAACCGAGCGGCG (double strand) [lung cancer test locus, unmethylated genomic dsDNA (A-673)] | > 18 |  |
| CGGATAGCGCGGCGGGCGACAGCCCCCCGGATAACCCCGCCGAGGGAGGGGCGCTTGTAAAACCGAGCGGCG [lung cancer test locus, synthetic ssDNA oligonucleotide] |  | 7.51 |
